Target: RbpB (BT_1887), recombinant B. thetaiotaomicron RbpB (B. thetaiotaomicron) (UniProt A9IXD6)
Experiment: SEC

RbpB (BT_1887), recombinant B. thetaiotaomicron RbpB (from UniProt A9IXD6 1-44) (natural protein)
stoichiometry N: 2

— doi:10.1101/2023.12.22.572801
